Here are results for 11 variants from IntAct's records for PubMed 29039417.

The chains are these.
B1: BBSome complex member BBS4 (Homo sapiens), Q96RK4 (parent)
chain: MAEERVATRTQFPVSTESQKPRQKKAPEFPILEKQNWLIHLHYIRKDYEACKAVIKEQLQETQGLCEYAIYVQALIFRLEGNIQESLELFQTCAVLSPQSADNLKQVARSLFLLGKHKAAIEVYNEAAKLNQKDWEISHNLGVCYIYLKQFNKAQDQLHNALNLNRHDLTYIMLGKIHLLEGDLDKAIEVYKKAVEFSPENTELLTTLGLLYLQLGIYQKAFEHLGNALTYDPTNYKAILAAGSMMQTHGDFDVALTKYRVVACAVPESPPLWNNIGMCFFGKKKYVAAISCLKRANYLAPFDWKILYNLGLVHLTMQQYASAFHFLSAAINFQPKMGELYMLLAVALTNLEDIENAKRAYAEAVHLDKCNPLVNLNYAVLLYNQGEKKNALAQYQEMEKKVSLLKDNSSLEFDSEMVEMAQKLGAALQVGEALVWTKPVKDPKSKHQTTSTSKPASFQQPLGSNQALGQAMSSAAAYRTLPSGAGGTSQFTKPPSLPLEPEPAVESSPTETSEQIREK
partner: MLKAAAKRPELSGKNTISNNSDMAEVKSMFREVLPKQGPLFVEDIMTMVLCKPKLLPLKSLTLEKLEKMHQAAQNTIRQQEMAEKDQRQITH

Variants of B1 are the subject of the experiment. The note with it: with bbip1_human BBIP1, A8MTZ0.
With MAEERVATRTQFPVSTESQKPRQKKAPEFPILEKQNWLIHLHYIRKDYEACKAVIKEQLQETQGLCEYAIYVQALIFRLEGNIQESLELFQTCAVLSPQSADNLKQVARSLFLLGKHKAAIEVYNEAAKLNQKDWEISHNLGVCYIYLKQFNKAQDQLHNALNLNRHDLTYIMLGKIHLLEGDLDKAIEVYKKAVEFSPENTELLTTLGLLYLQLGIYQKAFEHLGNALTYDPTNYKAILAAGSMMQTHGDFDVALTKYRVVACAVPESPPLWNNIGMCFFGKKKYVAAISCLKRANYLAPFDWKILYNLGLVHLTMQQYASAFHFLSAAINFQPKMGEKYMLLAVALTNLEDIENAKRAYAEAVHLDKCNPLVNLNYAVLLYNQGEKKNALAQYQEMEKKVSLLKDNSSLEFDSEMVEMAQKLGAALQVGEALVWTKPVKDPKSKHQTTSTSKPASFQQPLGSNQALGQAMSSAAAYRTLPSGAGGTSQFTKPPSLPLEPEPAVESSPTETSEQIREK [L340K], the “effect of a mutation on the interaction” value is on record as “with no effect”.
Under MAEERVATRTQFPVSTESQKPRQKKAPEFPILEKQNWLIHLHYIRKDYEACKAVIKEQLQETQGLCEYAIYVQALIFRLEGNIQESLELFQTCAVLSPQSADNLKQVARSLFLLGKHKAAIEVYNEAAKLNQKDWEISHNLGVCYIYLKQFNKAQDQLHNALNLNRHDLTYIMLGKIHLLEGDLDKAIEVYKKAVEFSPENTELLTTLGLLYLQLGIYQKAFEHLGNALTYDPTNYKAILAAGSMMQTHGDFDVALTKYRVVACAVPESPPLWNNIGMCFFGKKKYVAAISCLKRANYLAPFDWKILYNLGLVHLTMQQYASAFHFLSAAINFQPKMGELYTLLAVALTNLEDIENAKRAYAEAVHLDKCNPLVNLNYAVLLYNQGEKKNALAQYQEMEKKVSLLKDNSSLEFDSEMVEMAQKLGAALQVGEALVWTKPVKDPKSKHQTTSTSKPASFQQPLGSNQALGQAMSSAAAYRTLPSGAGGTSQFTKPPSLPLEPEPAVESSPTETSEQIREK [M342T] stands “disrupting interaction strength”; under MAEERVATRTQFPVSTESQKPRQKKAPEFPILEKQNWLIHLHYIRKDYEACKAVIKEQLQETQGLCEYAIYVQALIFRLEGNIQESLELFQTCAVLSPQSADNLKQVARSLFLLGKHKAAIEVYNEAAKLNQKDWEISHNLGVCYIYLKQFNKAQDQLHNALNLNRHDLTYIMLGKIHLLEGDLDKAIEVYKKAVEFSPENTELLTTLGLLYLQLGIYQKAFEHLGNALTYDPTNYKAILAAGSMMQTHGDFDVALTKYRVVACAVPESPPLWNNIGMCFFGKKKYVAAISCLKRANYLAPFDWKILYNLGLVHLTMQQYASAFHFLSAAINFQPKMGELYRLLAVALTNLEDIENAKRAYAEAVHLDKCNPLVNLNYAVLLYNQGEKKNALAQYQEMEKKVSLLKDNSSLEFDSEMVEMAQKLGAALQVGEALVWTKPVKDPKSKHQTTSTSKPASFQQPLGSNQALGQAMSSAAAYRTLPSGAGGTSQFTKPPSLPLEPEPAVESSPTETSEQIREK [M342R], “disrupting interaction strength”; under MAEERVATRTQFPVSTESQKPRQKKAPEFPILEKQNWLIHLHYIRKDYEACKAVIKEQLQETQGLCEYAIYVQALIFRLEGNIQESLELFQTCAVLSPQSADNLKQVARSLFLLGKHKAAIEVYNEAAKLNQKDWEISHNLGVCYIYLKQFNKAQDQLHNALNLNRHDLTYIMLGKIHLLEGDLDKAIEVYKKAVEFSPENTELLTTLGLLYLQLGIYQKAFEHLGNALTYDPTNYKAILAAGSMMQTHGDFDVALTKYRVVACAVPESPPLWNNIGMCFFGKKKYVAAISCLKRANYLAPFDWKILYNLGLVHLTMQQYASAFHFLSAAINFQPKMGELYALLAVALTNLEDIENAKRAYAEAVHLDKCNPLVNLNYAVLLYNQGEKKNALAQYQEMEKKVSLLKDNSSLEFDSEMVEMAQKLGAALQVGEALVWTKPVKDPKSKHQTTSTSKPASFQQPLGSNQALGQAMSSAAAYRTLPSGAGGTSQFTKPPSLPLEPEPAVESSPTETSEQIREK [M342A], “with no effect”.
The entry for MAEERVATRTQFPVSTESQKPRQKKAPEFPILEKQNWLIHLHYIRKDYEACKAVIKEQLQETQGLCEYAIYVQALIFRLEGNIQESLELFQTCAVLSPQSADNLKQVARSLFLLGKHKAAIEVYNEAAKLNQKDWEISHNLGVCYIYLKQFNKAQDQLHNALNLNRHDLTYIMLGKIHLLEGDLDKAIEVYKKAVEFSPENTELLTTLGLLYLQLGIYQKAFEHLGNALTYDPTNYKAILAAGSMMQTHGDFDVALTKYRVVACAVPESPPLWNNIGMCFFGKKKYVAAISCLKRANYLAPFDWKILYNLGLVHLTMQQYASAFHFLSAAINFQPKMGELYKLLAVALTNLEDIENAKRAYAEAVHLDKCNPLVNLNYAVLLYNQGEKKNALAQYQEMEKKVSLLKDNSSLEFDSEMVEMAQKLGAALQVGEALVWTKPVKDPKSKHQTTSTSKPASFQQPLGSNQALGQAMSSAAAYRTLPSGAGGTSQFTKPPSLPLEPEPAVESSPTETSEQIREK [M342K] is “disrupting interaction strength”.
Consider MAEERVATRTQFPVSTESQKPRQKKAPEFPILEKQNWLIHLHYIRKDYEACKAVIKEQLQETQGLCEYAIYVQALIFRLEGNIQESLELFQTCAVLSPQSADNLKQVARSLFLLGKHKAAIEVYNEAAKLNQKDWEISHNLGVCYIYLKQFNKAQDQLHNALNLNRHDLTYIMLGKIHLLEGDLDKAIEVYKKAVEFSPENTELLTTLGLLYLQLGIYQKAFEHLGNALTYDPTNYKAILAAGSMMQTHGDFDVALTKYRVVACAVPESPPLWNNIGMCFFGKKKYVAAISCLKRANYLAPFDWKILYNLGLVHLTMQQYASAFHFLSAAINFQPKMGELYELLAVALTNLEDIENAKRAYAEAVHLDKCNPLVNLNYAVLLYNQGEKKNALAQYQEMEKKVSLLKDNSSLEFDSEMVEMAQKLGAALQVGEALVWTKPVKDPKSKHQTTSTSKPASFQQPLGSNQALGQAMSSAAAYRTLPSGAGGTSQFTKPPSLPLEPEPAVESSPTETSEQIREK [M342E], for which the “effect of a mutation on the interaction” value is given as “with no effect”.
Consider MAEERVATRTQFPVSTESQKPRQKKAPEFPILEKQNWLIHLHYIRKDYEACKAVIKEQLQETQGLCEYAIYVQALIFRLEGNIQESLELFQTCAVLSPQSADNLKQVARSLFLLGKHKAAIEVYNEAAKLNQKDWEISHNLGVCYIYLKQFNKAQDQLHNALNLNRHDLTYIMLGKIHLLEGDLDKAIEVYKKAVEFSPENTELLTTLGLLYLQLGIYQKAFEHLGNALTYDPTNYKAILAAGSMMQTHGDFDVALTKYRVVACAVPESPPLWNNIGMCFFGKKKYVAAISCLKRANYLAPFDWKILYNLGLVHLTMQQYASAFHFLSAAINFQPKMGELKMLLAVALTNLEDIENAKRAYAEAVHLDKCNPLVNLNYAVLLYNQGEKKNALAQYQEMEKKVSLLKDNSSLEFDSEMVEMAQKLGAALQVGEALVWTKPVKDPKSKHQTTSTSKPASFQQPLGSNQALGQAMSSAAAYRTLPSGAGGTSQFTKPPSLPLEPEPAVESSPTETSEQIREK [Y341K], for which the “effect of a mutation on the interaction” value was “with no effect”.
As for MAEERVATRTQFPVSTESQKPRQKKAPEFPILEKQNWLIHLHYIRKDYEACKAVIKEQLQETQGLCEYAIYVQALIFRLEGNIQESLELFQTCAVLSPQSADNLKQVARSLFLLGKHKAAIEVYNEAAKLNQKDWEISHNLGVCYIYLKQFNKAQDQLHNALNLNRHDLTYIMLGKIHLLEGDLDKAIEVYKKAVEFSPENTELLTTLGLLYLQLGIYQKAFEHLGNALTYDPTNYKAILAAGSMMQTHGDFDVALTKYRVVACAVPESPPLWNNIGMCFFGKKKYVAAISCLKRANYLAPFDWKILYNLGLVHLTMQQYASAFHFLSAAINFQPKMGELAMLLAVALTNLEDIENAKRAYAEAVHLDKCNPLVNLNYAVLLYNQGEKKNALAQYQEMEKKVSLLKDNSSLEFDSEMVEMAQKLGAALQVGEALVWTKPVKDPKSKHQTTSTSKPASFQQPLGSNQALGQAMSSAAAYRTLPSGAGGTSQFTKPPSLPLEPEPAVESSPTETSEQIREK [Y341A], the “effect of a mutation on the interaction” value is “disrupting interaction strength”.
Consider MAEERVATRTQFPVSTESQKPRQKKAPEFPILEKQNWLIHLHYIRKDYEACKAVIKEQLQETQGLCEYAIYVQALIFRLEGNIQESLELFQTCAVLSPQSADNLKQVARSLFLLGKHKAAIEVYNEAAKLNQKDWEISHNLGVCYIYLKQFNKAQDQLHNALNLNRHDLTYIMLGKIHLLEGDLDKAIEVYKKAVEFSPENTELLTTLGLLYLQLGIYQKAFEHLGNALTYDPTNYKAILAAGSMMQTHGDFDVALTKYRVVACAVPESPPLWNNIGMCFFGKKKYVAAISCLKRANYLAPFDWKILYNLGLVHLTMQQYASAFHFLSAAINFQPKMGELEMLLAVALTNLEDIENAKRAYAEAVHLDKCNPLVNLNYAVLLYNQGEKKNALAQYQEMEKKVSLLKDNSSLEFDSEMVEMAQKLGAALQVGEALVWTKPVKDPKSKHQTTSTSKPASFQQPLGSNQALGQAMSSAAAYRTLPSGAGGTSQFTKPPSLPLEPEPAVESSPTETSEQIREK [Y341E], for which the “effect of a mutation on the interaction” value is reported as “with no effect”.
The entry for MAEERVATRTQFPVSTESQKPRQKKAPEFPILEKQNWLIHLHYIRKDYEACKAVIKEQLQETQGLCEYAIYVQALIFRLEGNIQESLELFQTCAVLSPQSADNLKQVARSLFLLGKHKAAIEVYNEAAKLNQKDWEISHNLGVCYIYLKQFNKAQDQLHNALNLNRHDLTYIMLGKIHLLEGDLDKAIEVYKKAVEFSPENTELLTTLGLLYLQLGIYQKAFEHLGNALTYDPTNYKAILAAGSMMQTHGDFDVALTKYRVVACAVPESPPLWNNIGMCFFGKKKYVAAISCLKRANYLAPFDWKILYNLGLVHLTMQQYASAFHFLSAAINFQPKMGELCMLLAVALTNLEDIENAKRAYAEAVHLDKCNPLVNLNYAVLLYNQGEKKNALAQYQEMEKKVSLLKDNSSLEFDSEMVEMAQKLGAALQVGEALVWTKPVKDPKSKHQTTSTSKPASFQQPLGSNQALGQAMSSAAAYRTLPSGAGGTSQFTKPPSLPLEPEPAVESSPTETSEQIREK [Y341C] is “disrupting interaction strength”; for MAEERVATRTQFPVSTESQKPRQKKAPEFPILEKQNWLIHLHYIRKDYEACKAVIKEQLQETQGLCEYAIYVQALIFRLEGNIQESLELFQTCAVLSPQSADNLKQVARSLFLLGKHKAAIEVYNEAAKLNQKDWEISHNLGVCYIYLKQFNKAQDQLHNALNLNRHDLTYIMLGKIHLLEGDLDKAIEVYKKAVEFSPENTELLTTLGLLYLQLGIYQKAFEHLGNALTYDPTNYKAILAAGSMMQTHGDFDVALTKYRVVACAVPESPPLWNNIGMCFFGKKKYVAAISCLKRANYLAPFDWKILYNLGLVHLTMQQYASAFHFLSAAINFQPKMGELDMLLAVALTNLEDIENAKRAYAEAVHLDKCNPLVNLNYAVLLYNQGEKKNALAQYQEMEKKVSLLKDNSSLEFDSEMVEMAQKLGAALQVGEALVWTKPVKDPKSKHQTTSTSKPASFQQPLGSNQALGQAMSSAAAYRTLPSGAGGTSQFTKPPSLPLEPEPAVESSPTETSEQIREK [Y341D] it is “disrupting interaction strength”.
